# According to US20250277030A1 (Zymeworks, published 2025):
# T1: human sodium-dependent phosphate transporter 2B (NaPi2b) (human, UniProt O95436 1-690)
# T1 construct: UniProt ID is given as 095436 [sic]; also called hNaPi2b; Hu NaPi2b
# T1 sequence: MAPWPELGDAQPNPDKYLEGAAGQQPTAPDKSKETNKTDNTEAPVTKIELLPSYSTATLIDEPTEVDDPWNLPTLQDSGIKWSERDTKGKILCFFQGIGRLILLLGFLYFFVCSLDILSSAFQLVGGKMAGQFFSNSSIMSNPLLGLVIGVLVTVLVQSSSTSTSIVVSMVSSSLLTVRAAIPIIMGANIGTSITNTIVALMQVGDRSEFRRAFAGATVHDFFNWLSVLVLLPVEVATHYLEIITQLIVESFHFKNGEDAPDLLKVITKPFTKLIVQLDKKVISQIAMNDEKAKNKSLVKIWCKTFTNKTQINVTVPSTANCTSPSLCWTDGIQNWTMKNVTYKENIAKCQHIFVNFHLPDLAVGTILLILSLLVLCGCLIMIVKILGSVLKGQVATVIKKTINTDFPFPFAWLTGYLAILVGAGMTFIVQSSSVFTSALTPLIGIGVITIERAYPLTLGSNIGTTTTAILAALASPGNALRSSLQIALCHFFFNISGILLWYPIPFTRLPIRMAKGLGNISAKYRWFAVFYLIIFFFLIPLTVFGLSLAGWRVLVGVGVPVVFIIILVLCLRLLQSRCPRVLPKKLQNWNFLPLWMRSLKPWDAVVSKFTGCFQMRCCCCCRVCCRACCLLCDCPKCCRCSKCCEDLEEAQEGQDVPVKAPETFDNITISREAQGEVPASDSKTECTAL
# T2: cynomolgus monkey NaPi2b (cynomolgus monkey, UniProt O95436 1-690 (human entry))
# T2 construct: Transiently expressed on HEK293-6e cells; also called Cyno NaPi2b
# T2 chain: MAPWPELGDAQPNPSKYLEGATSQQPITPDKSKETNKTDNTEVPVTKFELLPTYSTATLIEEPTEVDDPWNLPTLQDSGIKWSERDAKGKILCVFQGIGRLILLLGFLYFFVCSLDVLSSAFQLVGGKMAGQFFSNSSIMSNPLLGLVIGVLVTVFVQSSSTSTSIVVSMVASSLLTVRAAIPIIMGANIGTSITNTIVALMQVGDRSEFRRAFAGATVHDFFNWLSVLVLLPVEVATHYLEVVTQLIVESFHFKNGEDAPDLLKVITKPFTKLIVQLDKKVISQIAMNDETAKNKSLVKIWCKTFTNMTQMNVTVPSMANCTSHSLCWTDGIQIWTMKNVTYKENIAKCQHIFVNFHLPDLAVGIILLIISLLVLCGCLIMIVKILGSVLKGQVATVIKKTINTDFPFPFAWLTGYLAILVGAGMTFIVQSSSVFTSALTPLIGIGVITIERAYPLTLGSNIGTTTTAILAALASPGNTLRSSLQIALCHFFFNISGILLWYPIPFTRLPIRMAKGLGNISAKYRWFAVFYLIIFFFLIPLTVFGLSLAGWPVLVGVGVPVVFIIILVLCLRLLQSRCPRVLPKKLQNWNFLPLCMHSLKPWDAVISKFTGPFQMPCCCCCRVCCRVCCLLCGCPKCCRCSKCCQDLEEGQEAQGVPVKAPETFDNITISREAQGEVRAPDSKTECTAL
# B1: v29456 humanized anti-NaPi2b antibody (H1L2) (antibody, human IgG1, kappa)
# heavy: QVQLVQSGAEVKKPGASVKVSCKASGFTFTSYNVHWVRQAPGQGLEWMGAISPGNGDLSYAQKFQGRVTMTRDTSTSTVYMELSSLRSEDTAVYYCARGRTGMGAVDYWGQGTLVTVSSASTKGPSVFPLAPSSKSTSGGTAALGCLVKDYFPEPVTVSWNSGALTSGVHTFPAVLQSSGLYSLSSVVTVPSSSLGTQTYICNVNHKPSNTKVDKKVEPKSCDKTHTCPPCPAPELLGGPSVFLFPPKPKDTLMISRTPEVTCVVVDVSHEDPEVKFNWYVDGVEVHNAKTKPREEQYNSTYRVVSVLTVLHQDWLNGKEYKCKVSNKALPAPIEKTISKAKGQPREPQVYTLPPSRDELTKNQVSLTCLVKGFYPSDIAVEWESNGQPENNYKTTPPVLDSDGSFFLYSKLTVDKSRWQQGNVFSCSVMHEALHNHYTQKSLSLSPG
# light: DVQMTQSPSSLSASVGDRVTITCRASQDVYSYLNWYQQKPGKAVKLLIYYTSRLQSGVPSRFSGSGSGTDYTLTISSLQPEDFATYYCQQYNIFPWTFGQGTKLEIKRTVAAPSVFIFPPSDEQLKSGTASVVCLLNNFYPREAKVQWKVDNALQSGNSQESVTEQDSKDSTYSLSSTLTLSKADYEKHKVYACEVTHQGLSSPVTKSFNRGEC
# How the values were obtained:
# [1] = target: T1, human sodium-dependent phosphate …; assay: flow cytometry, IGROV-1 cells (endogenous NaPi2b)
# Method: (§1) Briefly, HEK293-6e cells were transfected for ˜24 hours to transiently express human NaPi2b, cynomolgus or mouse NaPi2b, at 1 μg of DNA per 1 million cells. Following transfection, 50,000 cells per well were seeded in V-bottom 96-well plates and incubated with 200 nM of primary antibody for 18-24 hours at 4° C. to prevent internalization. Post-incubation, cells were washed and stained with anti-Human IgG Fc AF647 conjugate (Jackson Immuno Research Labs, West Grove, PA, Cat. No. 109-605-098, Lot. No. 124868) at 4° C. for 1 hour. Following staining and washing, fluorescence was detected by flow cytometry on BD LSRFortessa™ Cell Analyzer (BD Biosciences, Franklin Lake, NJ) with 10,000 minimum events collected per well. The AF647/APC-A GeoMean (fluorescence signal geometric mean, proportional to anti-Human AF647 binding) was calculated for the live singlet cell population for each primary antibody using FlowJo™ v8 software (BD Biosciences, Franklin Lake, NJ). The Bmax and Kd of each primary antibody were calculated using GraphPad Prism Version 9 (GraphPad Software, San Diego, CA)
# (§2) The ability of ADCs to bind to cells expressing NaPi2b was assessed. […] Binding to endogenous high NaPi2b-expressing cell lines IGROV-1 and HCC-78 was assessed by flow cytometry according to methods described in Example 5.
# [2] = target: T1, human sodium-dependent phosphate …; assay: flow cytometry, TOV-21G cells (endogenous NaPi2b); apparent Kd
# Method: Briefly, cells were seeded at 50,000 cells/well in conical-bottom 96-well plates and treated with test antibody for 24 hours at 4° C. to prevent internalization. […] Following incubation, cells were washed and stained with anti-Human IgG Fc AF647 conjugate (Jackson Immuno Research Labs, West Grove, PA; Cat. No. 109-605-098) at 4° C. for 30 min. Following incubation and washing, fluorescence was detected by flow cytometry on a BD LSRFortessa™ Cell Analyzer (BD Biosciences, Franklin Lake, NJ) with 1,000 minimum events collected per well. The AF647/APC-A GeoMean (fluorescence signal geometric mean, proportional to anti-Human AF647 binding) was calculated for the live cell population using FlowJo™ Version 10.8.1 (BD Biosciences, Franklin Lake, NJ) and plotted for each test antibody using GraphPad Prism Version 9 (GraphPad Software, San Diego, CA).
# The ability of the humanized antibody variants v38591 and v29456 to bind to NaPi2b expressed on cells was assessed on endogenous NaPi2b-expressing tumor cell lines IGROV-1 (ovarian adenocarcinoma) and TOV-21G (ovarian carcinoma) by flow cytometry.
# Cellular binding was performed according to methods described in Example 13.
# cynomolgus monkey NaPi2b [3] = target: T2, cynomolgus monkey NaPi2b; assay: flow cytometry, HEK293-6e cells transfected with cynomolgus NaPi2b
# Method: (§3) The binding cross-reactivity of humanized antibody variant v29456 to human, cynomolgus and mouse NaPi2b was assessed by flow cytometry using HEK293-6e transfected cells.
# as §1
# cynomolgus monkey NaPi2b [4] = target: T2, cynomolgus monkey NaPi2b; assay: flow cytometry, HEK293-6e cells transfected with cynomolgus NaPi2b; apparent Kd
# Method: as §3, §1
# [5] = target: T1, human sodium-dependent phosphate …; assay: flow cytometry on IGROV-1 cells (endogenous NaPi2b), 4 C, anti-human IgG Fc AF647 detection
# Method: as §1, §2
binder,measurement,setting,value
B1,Bmax (MFI),[1],78100 MFI
same,Kd,[2],0.6 nM
same,Bmax (APC-A GeoMean),cynomolgus monkey NaPi2b [3],2010 APC-A GeoMean
same,fold lower apparent Kd than v18992 (MX35),cynomolgus monkey NaPi2b [3],10 fold
same,fold lower apparent Kd than v18993 (lifastuzumab),cynomolgus monkey NaPi2b [3],2 fold
same,Kd,cynomolgus monkey NaPi2b [4],3.2 nM
same,EC50 (read off the curve),[5],~0.6 nM
